Source: article PMC4117790, “HRAS is silenced by two neighboring G-quadruplexes and activated by MAZ, a zinc-finger transcription factor with DNA unfolding property”

T1: MAZ-GST (UniProt P56270 1-477)
T1 sequence: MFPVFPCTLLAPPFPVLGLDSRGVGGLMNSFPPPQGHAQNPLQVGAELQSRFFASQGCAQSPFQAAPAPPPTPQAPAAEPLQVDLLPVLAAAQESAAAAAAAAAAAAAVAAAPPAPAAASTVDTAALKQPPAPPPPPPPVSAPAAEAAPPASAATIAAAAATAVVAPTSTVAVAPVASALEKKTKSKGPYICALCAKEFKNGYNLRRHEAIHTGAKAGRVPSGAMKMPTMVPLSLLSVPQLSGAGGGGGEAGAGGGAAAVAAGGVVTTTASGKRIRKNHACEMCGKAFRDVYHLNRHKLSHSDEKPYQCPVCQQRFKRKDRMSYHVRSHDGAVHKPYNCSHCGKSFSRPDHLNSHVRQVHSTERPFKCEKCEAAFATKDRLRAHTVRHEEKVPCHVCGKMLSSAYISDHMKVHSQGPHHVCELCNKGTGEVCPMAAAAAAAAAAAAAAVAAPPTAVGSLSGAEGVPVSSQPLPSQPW


What was measured:
MAZ-GST [1] = target: T1, MAZ-GST; test: double-filter binding; 100 mM KCl, 50 uM Zn acetate; Hill n = 1.4 ± 0.2; EMSA/filter: 20 mM Tris-HCl pH 8, 8% glycerol, 100 uM MgCl2, 50 uM Zn acetate, 1 mM DTT, 2.5 ng/ul poly dIdC, 1 mM Na3VO4, 5 mM NaF, KCl as stated (100 mM for filter binding); EMSA gel 20 C, filter 4 C 30 min; FRET: 50 mM Tris-HCl pH 7.4, 50 uM Zn acetate, 50 mM KCl, 37 C; details: protein: recombinant; tags: GST; label: 32P; parallel intramolecular G4
MAZ-GST [2] = target: T1, MAZ-GST; test: double-filter binding; 100 mM KCl, 50 uM Zn acetate; Hill n = 1.6 ± 0.3; EMSA/filter: 20 mM Tris-HCl pH 8, 8% glycerol, 100 uM MgCl2, 50 uM Zn acetate, 1 mM DTT, 2.5 ng/ul poly dIdC, 1 mM Na3VO4, 5 mM NaF, KCl as stated (100 mM for filter binding); EMSA gel 20 C, filter 4 C 30 min; FRET: 50 mM Tris-HCl pH 7.4, 50 uM Zn acetate, 50 mM KCl, 37 C; details: protein: recombinant; tags: GST; label: 32P; antiparallel intramolecular G4

Row | Binder | Kd (MAZ-GST [1]) [nM] | Kd (MAZ-GST [2]) [nM]
1 | CGGGGCGGGGCGGGGGCGGGGGCG (structured_DNA) [hras-2 quadruplex] | 207 ± 12 | 
2 | TCGGGTTGCGGGCGCAGGGCACGGGCG (structured_DNA) [hras-1 quadruplex] |  | 504 ± 84
